Blank lines part the entries; values can stand above or below the substance they belong to.
Legend:
[1] = in vivo; cited from earlier work
PTH1R [2] = target: T1, PTH1R (Rattus norvegicus, UniProt P25961); experiment: PTH dose response, cAMP induction in UMR-106 cells in 25% pooled human serum; type: cell-based; conditions: interpolated from curve fit, rounded
T1 construct: any cells that express PTH1R and allows the induction of cAMP signaling; host or cells: UMR-106 rat osteosarcoma cells
T1 sequence (P25961 27-591): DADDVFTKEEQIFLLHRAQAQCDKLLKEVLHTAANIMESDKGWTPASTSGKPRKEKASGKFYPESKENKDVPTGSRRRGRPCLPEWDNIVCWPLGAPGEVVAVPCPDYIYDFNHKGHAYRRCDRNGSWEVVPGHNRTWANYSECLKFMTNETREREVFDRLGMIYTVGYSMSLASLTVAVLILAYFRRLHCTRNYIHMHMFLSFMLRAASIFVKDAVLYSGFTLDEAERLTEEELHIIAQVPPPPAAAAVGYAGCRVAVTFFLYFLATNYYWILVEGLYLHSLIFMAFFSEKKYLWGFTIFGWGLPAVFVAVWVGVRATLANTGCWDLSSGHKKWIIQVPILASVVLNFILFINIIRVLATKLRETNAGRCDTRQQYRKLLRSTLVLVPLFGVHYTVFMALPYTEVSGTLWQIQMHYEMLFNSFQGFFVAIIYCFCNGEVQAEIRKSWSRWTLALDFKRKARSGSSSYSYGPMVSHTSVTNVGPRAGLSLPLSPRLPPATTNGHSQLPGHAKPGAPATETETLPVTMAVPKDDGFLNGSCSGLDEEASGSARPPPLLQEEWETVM
Procedure: (§1) UMR-106 cells are maintained in growth medium (UMR-GM, Dulbecco's Modified Eagle's Medium (DMEM) containing 10% Fetal Bovine Serum, 1% Pen-Strep (10 k units Penicillin—10 k ug/mL Streptomycin) and 1% L-glutamine) in 75-150 cm^2 tissue culture flasks until ready for use. Cells are split at a ratio between 1:4 and 1:20 when growth reaches ≥70% confluence for routing culture maintenance. Prior to initiating an assay, cells are plated in sub-culturing flasks (25 cm^2 to 150 cm^2) at a density of 10^6 cells/5 cm^2 (example 5e6 cells for T-75). The following day, flasks are starved with assay medium (UMR-Am, Phenol Red-Free DMEM, containing 1% Bovine Serum Albumin). The following day validation samples and antibody controls are pre-incubated with PTH peptide for a minimum of 30 minutes. The validation samples and controls are adjusted such that the final assay concentration of serum is equal to the assay minimum required dilution of 1:4. Twenty microliters of samples and/or controls are placed on a MSD cAMP assay plate. […] Forty microliters of the cell suspension are added to the cAMP assay plate. […] One hundred microliters of 2×MSD Read Buffer T are then added to the plates and plates are read immediately on an MSD 6000 or 56000 Sector Imager. […]

PTH1R [3] = target: T1, PTH1R; experiment: PTHrP dose response, cAMP induction in UMR-106 cells; type: cell-based; conditions: interpolated from curve fit, rounded
Procedure: as §1, with “PTHrP” for “PTH peptide”, “S6000” for “56000”

Substance: Abaloparatide: parathyroid hormone-related peptide (PTHrP) (1-34) analog which acts as a PTH1 receptor (PTH1R) agonist
antibody-positive patients who developed neutralizing antibodies to Abaloparatide [1]: 68%
patients who developed anti-Abaloparatide antibodies [1]: 49%
patients who developed cross-reactivity to PTHrP [1]: 2.3%
patients who developed cross-reactivity to parathyroid hormone (PTH) [1]: 0%
patients who developed neutralizing antibodies to PTHrP [1]: 43%

EC20 of the PTH response (PTH1R [2]): 0.728 ng/mL
EC30 of the PTH response (PTH1R [2]): 0.436 ng/mL
Substance: PTH: Parathyroid Hormone Peptide (1-34)(Human), Phoenix Pharmaceuticals P/N 055-08

EC20 of the PTHrP response (PTH1R [3]): 0.728 ng/mL
EC30 of the PTHrP response (PTH1R [3]): 0.436 ng/mL
Substance: PTHrP: PTHrP (1-34)(Human, Rat, Mouse) peptide, Phoenix Pharmaceuticals P/N 056-04

— patent US11255842B2, “Methods for detecting neutralizing antibodies to parathyroid hormone (PTH) and parathyroid hormone-related peptide (PTHRP) analog” (Radius Health, Inc., priority 2019, dated 2022)
